In the DeepSol protein solubility set:

Experiment: soluble on expression in E. coli; label from the status in PepcDB or PDB records

Sequence	soluble on expression in E. coli
MAHHHHHHMSFAGLQKRLKNKAVATTTTNSTPPSSDAKTDNIESSSSVYDVAAREARANHEERKRQRSPHDKENTAYNPTINERNGPADMLSDHPSVEKASSKTLTETEFLERRHLAEEVVLQCAEAMSRNMELAATSIDKIDIKKESEVYDMSGLPLPLCQFLEQRLQRSSDATAMLISTCEEEEHNLVSALRSPSNLPMLFPPQVEDFVTTLRTLWLALCWHWVMALRGKEGNEGKEVSENGWSYNVYLLSRHALPITVRNTRGRDVALALQAWQEAYRVRQNMLDFLAYILHDMGVVLRFSGDDASKGDENLRIVPPKIADSIFCMVQHLRRRDFTTVRQAYVELTMGTANWKLGLFSGGEVHMRRSMERIERRRIEHLLHNERAVRLLHVLRELIEFVQKNEVMLLHTGIFAREKSMKEHSP	not soluble
MAHHHHHHMSINRYNYKTMNSLLKDKIPQHFDILPHTTIKCIIHPSVIFTILDAYLRRDEDQTHVIGTLMGSVIDTNLVEISDCFVDKHSLNEGGFLQIIKDHHETMYELKQKIRPRDQVVGWFCSGSELSELSCAVHGWFKEHNSISKFYPHTPLNEPIHLLVDASLESGFLNIKAYVQLPISLVKDYFVHFHEIQTELLPCNVERADVSLVKGNIHAHKDNHTNNLEHNHNNNQIDMNELSLKKLLIMLKQCKSYVQDVIDQKKKGNISVGRYLHKVLSNDTFLTLEKFDSINESVLQDNLMISYLSNLANLQFLIAEKLNSSSLQ	not soluble
MAHHHHHHMSLAGQFTTFCRTHEQPMNEESCAVFLMAIEVAPSTRQQYARMLRSMLEMNRTPLDMVILGLQKIASRSETKQTRPSTKERGGRMYPQPDRLEGTCCLTTCVDNGELLVRGFGLDFQQFHTGVGRGLSFGLARGAEDGEGGSIPRLAVREDTRAGRLRQYKAMQDTSRKRKAYEAYDCTGDTISGSLGCHGAFHKTGSVEARCSNRGDMRFGPARGLAVGEARRPVRPSPEYCSIFGEIHHNADPGVVIDRIDVKGETAEGQELWLRAEERFFHDFNHNHAATITRRATRTRPTTPQNEHAIPLQQVNVPVLNLEWIQIRLNPATLERLMQVWGLVGRSPFPLSSSGKAREGSRSIPTADARLLNAAGIIEDASSTITGGWIIPFFGCGGENHRFTTTMDRVATRQEQRRAL	not soluble
MAHHHHHHMSNDPKPTKPDPRVANNDVASDDGSDGKGDVAAPPAFLPTAGRVEVHPLVLLSLVDHYARMNTSAVQKKRVAGLLLGRYVRDSTGMQTLDINNSFAVPFDEDPQDAGVWFFDTNYAQEMFAMHKRVLPKVKVVGWYSSGPTIQPNDMLLHLLVADRFCLNPVYCVVNTDPNNKGVPVRAYTTVQGREGTRSLEFRNIPTHLGAEEAEEIGIEHLLRDLTDSTITTLSTQVQERELSLVHLCKVLQQIEEYLKDVGNAVMPISEDVLEVLQELISLQPEIYARRSSTEMIRHTNDEAIATFLAAIARCIGALHGVIMNRRKLARELQEIKDRRARAAETRLENEKMKIEEAAKEKDTNQA	not soluble
MAHHHHHHMSPAADTTHSTTKPCAPNRSSIPETCSRAPNGTRASAADEVTLLTAPQFAKSTKDTRSTARQQEEQLSDVLVLIRHGERQDHVDRAWKGNALLPLYDPPLSNAGRMQSFETALRYFALRQERKVEKRIRGTFTLFLVSPFHRCIETAAVMNVIAFEGRLPMYVEPFLSDWQQAKVFRTAPVLGGSYTTSGRPSVPGAKGDRLLFRPQVEALRVTLIPFLKTRAAEETELLAEYKIGAEVASAWTTLAEEWLNTHTALPVWTCAAATNVIEAKVASRSDGASDVRATSRKAAKGSQPSPRDASNEGYRGCGVAHPEGKSDLLRRCEQVMSTHFLRCAAVASDTMVPLAIQTAVAAERTTRLPKYFQIWAERPEENRESAGPPALLPPMHIMAITHADVVSTLLEVCCPKYHDKGAGYSVPYCSVTTLQRHNNYYRIPTAEERRRREASASTLAPAQNRGKCYAKKKGNTPSSKNQLMTPIRTRPLSPLSVEWNVEAVGSTDLLRTRIVIQYTK	soluble
MAHHHHHHMSSVSAAPQLSPKVIPGCSNTHSNSGLPTILSDLGTFAYQSACYGPQQLLACSSAVTNAGEVIFVYDMNSMLLTQSLSGHKAAVTALLWRPPPASYLQTGLFLWSGDARGALMYWDVVEGVALTSIQTPCHAAVQSLTLLTDEHLLVVTQEGAGYVFNSHLVDNTPLPPGRLLLETKQSTLLGNISRPSLVACSRLNDQHCCAVVLGDRLRILTAIQLDSGATAPVAKDLIYDSCDGAPTVVDVFFSDAQEEVLYFATRNTVGCYDWKLRLMLNESLLWLPDEVEFRRIFRSCSSGAAARTAASRSQESTASSSGDAAAAQVPLMYSFGSDQRLVAWHVTRHDRFTAVLTDVRGARINAKLCVNVVQSELDSSMFAVLFEDGSIVHWQYSPLARRWKLLDCWLAPVVRPVTFCPVGAHHCCVALESGHLALMDITHSMAVRRLTWSTLAERRLCCCAGTSGATLSGSCRTASNSTATTTKSR	not soluble
MAHHHHHHMSTSVVARHPQMRPSRKRQAQRQHPRQQRSVAHKAQRAPSSGHGASSVEHLPRDAVVHVALRQQHRPAGQAHSRIKRHRVVLRRQKVVPHKRHGGARHTHSPTHRHRVLAQQEVAVNKRHHGAAAGRNAALHRHAQPQRRLHQQSVHVQRTARRQRHAANHQHANSVAEHSRHLRSRNCQHAPRQIHVVHHEARRRVAKVVGAAVRNTRLCYQHRVHHSDARARRKPVRHQHTAARTRLKTADQHINALASRRVGPPPNNVQARSAQKRAVRQRHVAHAP	not soluble
MAHHHHHHMSVKNTFGTQAAKALCANLYTNWLSEDENVERIRDLLNRVLTLSATDQHSEMGAKNAASMTTAAAAAAGDKKGKAAGADALGNGARHSDPAVGLSTSSAAIHGNADRAQSPQPSPPQKSDKSAAALAADDRTPSPIQPSTSPTLIARFPGGVDELDYPHRAGSPVVTPVSPQPKPIVDPSAPLPHVGTGSLSPHGVHSLGSPRLDTTLNAAMVSGDLTIPLDASSTLSTTARESTTRFLHTSGSFAVTPPANLKQATLDEIPCFYSKRESRGLQIEVDVEEAQELSRLLEKNDPVKKTVWVFGDISSKVFKVPIWYKEALFKDIATRSGLDAATADTLTAAQIRTVYNDVYAPLSVSRRLYELICTHPKKEFITLSDLEGMGKYLVAAHPGLQFLQQPEFQEYYWHTVAVRIMYMLERQQCGRIYWRDFDRSDLPERMMELDAKDVNLVLDYFSYEHFYVLYCKFWELDTDRDLLVGFEDLCNYGQGSVVTGVIKRVVEGYGRPLSSGVPGKMDFEDFVYFCLSEEDKNSEPAVLYWFKVLDTDEDGVLSGYEMMQFFEENQQRFLEFSDSPEGDIAYEDTVCQMLDMVGFDRVKVRKYGVTLGDLRSCPTPANFFNMIFNASKFLLFEHRDPFGEHQMRLRVEKTEWDRFARAEYDRMAAEAQ	not soluble
MAHHHHHHMTAHVDRCVFFSKMGACRHGDQCTKLHYRPDTSPTVLFPLMYPNPHAIEHIKDREWNFELDKKYLKKHFEHFYKEVWRTFMEFGRIAELRVVSNLGDHLLGNVYIRFEDPQVATRIVKELRGKKLNDIIVLPELSPVTNFAEACCKEDLENRCQRGEQCNYLHIMKVSRRLLEKLEKEQSKYWKKKERRHEHSSSDRKRSRSRSPADTRW	soluble
MAHHHHHHMTAQILLYTDCIPQVFSPLKGEREGLLDSQQFANITTNCNTAFACGDPSLNTRISPYMRLSYFHNVTRIRNRKAHISHDIAGDCYVHYKTTCGGIILRPNVRLRPRGRSHRNRVSPRNVIFAAIFLNHRRNGLNRHIDRLNQILQKIIGNIAQTRYG	not soluble
MAHHHHHHMTDMHTTLSRVILVAMLHDVADHKYDSDGTLRHRVEAFIKEERNATIETAESHAYALQTIEAVSFSAEKQRGKRWFTSVLPTEWLRVRDIVSDADKLEAIGYAGLLRCLEYTSHLLLPRGKTTEGEQHMKEGGEGRPHWSREFERQCLQNVREHFEEKLNLLPTEYIVTEPGRFLALPRRAEMVEALHQWEENGLPPLS	not soluble
MAHHHHHHMTRKVAGDMWDSRVEASLPALNYLRTAQQLQKKADELSRAQERVHRLQEDNSALLLENELLKRERDALLCKVQFLELNEHGHCTTNDIVGPWGNVRSVPAGGLGSTTGGDLSPVFKDNVNKASETRVNISEQARTHTNSEQQDLHNPKEETILCPLSASSETLINTNRPDANIETFHRSTESHVEYCANGECRSPISMTRTTQTVAYERRVPSVERGTMTTMNIYICSYQSLPSKAGAFFEVPLSNVETAIHHDPESLTSITIPRS	not soluble
MAHHHHHHMTSTVTAVNQTQSLAAIRNFVRASVSCITYARGLCSDNAYEQRPFLGLPLRQLIPSTTESITISEWIEKGAFDALNRNYLKEMSLCVYDAACHELLESYCFGFNYTGDGERAQMTLNASQTIADGSKTTAVSQSSGGAVGIPAYRKRRCTKQEVQHLLTSILERLMDVVESLPPLLSERVLTMRLTYYDAVTPASYEPPCFAPASEHMARLYQAEVKHHVNIGSMDTSHHLFSVAIRHPLLQQIHRQMTGRTTSAVATKTGGSPLSAGKIAAVSTPSDPLRSGWESSFSSDPAVASAVAAAGATVTHGVVASHASCGLLLCADGEGAAFDAENAGEEKAAGSSLGEVGGGGACTARTGETLRPCEVAKLDGVYRLMEKSTSGDERRLLRPAELTYLLFAAFVFTKAPSARGGRGELKADEVEAYRALRCPFDVSAKTVLLVLQRLSREDFLQPCNARGAPAPKMPKAEEGSRPTPAIRAWLVPDPPASLLQQLMQVDAVTELLTHESHLVLQELSVYLAREEWRRAPRTMTAKATSGRISTTGGSGKRRSSR	soluble
MAHHHHHHMVDDILKCIHNEFKYVLISCDINNEIKELTFKGSEEKFQNTLGSYFRRIIFDEKGKDELKESIKEKLKTNDKNDEDKEKVNTISPDIINNAIESSQTYQIIPLTIPNEKNDFLGINCYIDDIGRIKKLPYNSRASRICSTEIYGDAFLSKTYDNEDFKRCDFTISEYDEFLKNPPKSENRWDQAQAMQNLLKQMKGQNDAGVNDEAPTEKVNACEHCYKEQNLKRCGRCKKVYYCSVECQKSDYVFHKRICS	soluble
MAHHHHHHMVIFDDVENSNRVGGNEGGIRPIFVQLTPNAPLPSEEYLRLVALSKAPPPPDSEGSTLHSARNCRERSARVNGRRSPTKTNVRPRPPVTATQKWGDNAMSLINSKEEAVQRHEFALHVRGARYCRLLETMLDSSDLQLEPLHYDPKDPNMGRRPNGTEGNPANSLPPVILPQATQKGCVALFTYLDLITKRVPSMLSKPLRAPLEELVQPWELEFLLYSCMGDDVRNAITHIDEDGTADKRGRAPTNDTRPSYYSTILEKAPRSVDLLLEVALLSDFLLVEPLRQLTCAFIASLALNASSEEELLQLSGLQRPMTEDELEPLYYQFPFLRPDNHAKN	not soluble
MAHHHHHHMVNEYHEAPRPAITLPRPGTKFRASAVEPILKKVCQTLVGDRAYAHEDVQPLIKEICSEIQQRVVRLGYERYKFVTHATVTEAVNQGIRIASRGLWDPVTDGYASYTFSTETMHVNVVLYALYWE	not soluble
MAHHHHHHMVNFILNEAKDKAHEIEAKALEDFNIEKLRIVQKMKEKIRVEFQKKAKQMEIKRSIARSSAINKARLKKMCAKDQVFKEIYKISSDKLNDLYKDKDKYKNLIVDLIVQSLFYMQEPHVIVRCRDIDKAVVESSLNEAVSKYTDKLKKQFNVTKTVKIELDKSGNYLPPPPTPENEGNSCLGGVILTTPNRKINCDNTLDVRLKLAIEYCTPEIKRMFFENA	not soluble
